Data as given in patent publication US20190359693A1.

Legend:
[1] = molecular target: HA of H1N1 A/New Caledonia/20/1999 (influenza A virus); experiment: cell-based or functional assay
[2] = molecular target: HA of H3N2 A/Brisbane/10/2007 (influenza A virus); experiment: cell-based or functional assay
[3] = molecular target: HA of H1N1 A/Brisbane/59/07 (influenza A virus); experiment: cell-based or functional assay
[4] = molecular target: HA of H3N2 A/HK/1/68-MA (influenza A virus); experiment: cell-based or functional assay
[5] = molecular target: HA of H5N1 A/Vietnam/1194/04 (influenza A virus); experiment: cell-based or functional assay
[6] = molecular target: HA of H1N1 A/Puerto Rico/8/34-MA (influenza A virus); experiment: cell-based or functional assay
[7] = molecular target: HA of H7N3 A/NIBRG/60 (A/mallard/NL/12/00) (influenza A virus); experiment: cell-based or functional assay
[8] = molecular target: hemagglutinin (HA) of influenza virus H3N2 A/Brisbane/10/07 (influenza A virus); experiment: cell-based or functional assay
[9] = molecular target: hemagglutinin (HA) of influenza virus H2N2 A/WF/HK/MPU3156/05 (influenza A virus); experiment: cell-based or functional assay
[10] = molecular target: hemagglutinin (HA) of influenza virus H5N1 A/Vietnam/1194/04 (influenza A virus); experiment: cell-based or functional assay
[11] = molecular target: hemagglutinin (HA) of influenza virus H7N3 A/NIBRG/60 (A/mallard/Netherlands/12/00) (influenza A virus); experiment: cell-based or functional assay
[12] = molecular target: hemagglutinin (HA) of influenza virus H2N2 A/Guiyang/1/57 (influenza A virus); experiment: cell-based or functional assay
[13] = molecular target: hemagglutinin (HA) of influenza virus H7N9 A/Anhui/1/13 (influenza A virus); experiment: cell-based or functional assay
[14] = molecular target: hemagglutinin (HA) of influenza virus H5N1 A/PR8 H5N1 HK97 (influenza A virus); experiment: cell-based or functional assay
[15] = molecular target: hemagglutinin (HA) of influenza virus H3N2 A/Victoria/210/09 (influenza A virus); experiment: cell-based or functional assay
[16] = molecular target: hemagglutinin (HA) of influenza virus H11N9 A/Northern Pintail/MPC2085/07 (influenza A virus); experiment: cell-based or functional assay
[17] = molecular target: hemagglutinin (HA) of influenza virus H3N2 A/Fukui/45/04 (influenza A virus); experiment: cell-based or functional assay
[18] = molecular target: hemagglutinin (HA) of influenza virus B/Malaysia/2506/04 (Victoria) (influenza B virus); experiment: cell-based or functional assay
[19] = molecular target: hemagglutinin (HA) of influenza virus H14N5 A/Mallard/Astrakhan/263/1982 (influenza A virus); experiment: cell-based or functional assay
[20] = molecular target: hemagglutinin (HA) of influenza virus H7N7 A/PR8 H7N7-NY (influenza A virus); experiment: cell-based or functional assay
[21] = molecular target: hemagglutinin (HA) of influenza virus H1N1 A/WSN/33 (influenza A virus) (UniProt P03454); experiment: cell-based or functional assay
[22] = molecular target: hemagglutinin (HA) of influenza virus H4 A/WF/HK/MPA892/06 (influenza A virus); experiment: cell-based or functional assay
[23] = molecular target: hemagglutinin (HA) of influenza virus B/Brisbane/60/08 (Victoria) (influenza B virus); experiment: cell-based or functional assay
[24] = molecular target: hemagglutinin (HA) of influenza virus H3N2 A/HK/1/68-MA (influenza A virus); experiment: cell-based or functional assay
[25] = molecular target: hemagglutinin (HA) of influenza virus H3N2 A/Aichi/2/68 (influenza A virus) (UniProt P03437); experiment: cell-based or functional assay
[26] = molecular target: hemagglutinin (HA) of influenza virus H1N1 A/California/07/09 (influenza A virus); experiment: cell-based or functional assay
[27] = molecular target: hemagglutinin (HA) of influenza virus H3N2 A/Panama/2007/99 (influenza A virus); experiment: cell-based or functional assay
[28] = molecular target: hemagglutinin (HA) of influenza virus H1N1 A/Solomon Islands/3/2006 (IVR 145) (influenza A virus); experiment: cell-based or functional assay
[29] = molecular target: hemagglutinin (HA) of influenza virus H3N2 A/Hiroshima/52/05 (influenza A virus); experiment: cell-based or functional assay
[30] = molecular target: hemagglutinin (HA) of influenza virus B/Florida/04/06 (Yamagata) (influenza B virus); experiment: cell-based or functional assay
[31] = molecular target: hemagglutinin (HA) of influenza virus H1N1 A/Brisbane/59/07 (influenza A virus); experiment: cell-based or functional assay
[32] = molecular target: hemagglutinin (HA) of influenza virus H1N1 A/New Caledonia/20/99 (influenza A virus); experiment: cell-based or functional assay
[33] = molecular target: hemagglutinin (HA) of influenza virus H1N1 A/Puerto Rico/8/34-MA (influenza A virus); experiment: cell-based or functional assay
[34] = molecular target: hemagglutinin (HA) of influenza virus H8N4 A/Eurasian Wigeon/MPH571/08 (influenza A virus); experiment: cell-based or functional assay
[35] = molecular target: hemagglutinin (HA) of influenza virus H3N2 A/Perth/16/09 (influenza A virus); experiment: cell-based or functional assay
[36] = molecular target: hemagglutinin (HA) of influenza virus H10N7 A/Chick/Germany/N/49 (influenza A virus); experiment: cell-based or functional assay
[37] = molecular target: hemagglutinin (HA) of influenza virus B/Lee/40 (Old) (influenza B virus) (UniProt P03460); experiment: cell-based or functional assay
[38] = molecular target: hemagglutinin (HA) of influenza virus B/Harbin/7/94 (Yamagata) (influenza B virus); experiment: cell-based or functional assay
[39] = molecular target: hemagglutinin (HA) of influenza virus H6N1 A/Eurasian Wigeon/MPG1884/09 (influenza A virus); experiment: cell-based or functional assay
[40] = molecular target: hemagglutinin (HA) of influenza virus H9N2 A/HK/466419/09 (influenza A virus); experiment: cell-based or functional assay
[41] = molecular target: hemagglutinin (HA) of influenza virus H7N9 A/Shanghai/2/13 (influenza A virus); experiment: cell-based or functional assay
[42] = molecular target: hemagglutinin (HA) of influenza virus H3N2 A/Wisconsin/67/05 (influenza A virus); experiment: cell-based or functional assay
[43] = molecular target: hemagglutinin (HA) of influenza virus H1N1 A/Mississippi/03/01 274H (influenza A virus); experiment: cell-based or functional assay
[44] = molecular target: hemagglutinin (HA) of influenza virus B/Massachusetts/02/12 (Yamagata) (influenza B virus); experiment: cell-based or functional assay
[45] = molecular target: hemagglutinin (HA) of influenza virus H3N2 A/Johannesburg/33/94 (influenza A virus); experiment: cell-based or functional assay
[46] = molecular target: hemagglutinin (HA) of influenza virus H1N1 A/Christchurch/16/10 (influenza A virus); experiment: cell-based or functional assay
[47] = molecular target: hemagglutinin (HA) of influenza B/Harbin/7/94 (Yamagata lineage) (influenza B virus B/Harbin/7/94); experiment: cell-based or functional assay
[48] = molecular target: hemagglutinin (HA) of influenza A/New Caledonia/20/99 (H1N1) (influenza A virus A/New Caledonia/20/99 (H1N1)); experiment: cell-based or functional assay
[49] = molecular target: hemagglutinin (HA) of influenza A/Vietnam/1194/04 (H5N1) (influenza A virus A/Vietnam/1194/04 (H5N1)); experiment: cell-based or functional assay
[50] = molecular target: hemagglutinin (HA) of influenza A/Brisbane/10/07 (H3N2) (influenza A virus A/Brisbane/10/07 (H3N2)); experiment: cell-based or functional assay
[51] = molecular target: hemagglutinin (HA) of influenza B/Brisbane/60/08 (Victoria lineage) (influenza B virus B/Brisbane/60/08); experiment: cell-based or functional assay
[52] = molecular target: HA of B/Lee/40 (influenza B virus) (UniProt P03460); experiment: cell-based or functional assay
[53] = molecular target: HA of B/Harbin/7/94 (Yamagata) (influenza B virus); experiment: cell-based or functional assay
[54] = molecular target: HA of B/Malaysia/2506/04 (Victoria) (influenza B virus); experiment: cell-based or functional assay
[55] = molecular target: HA of B/Florida/04/2006 (Yamagata) (influenza B virus); experiment: cell-based or functional assay
[56] = molecular target: HA of B/Brisbane/60/2008 (Victoria) (influenza B virus); experiment: cell-based or functional assay
[57] = molecular target: HA of H3N2 A/Brisbane/10/2007 (influenza A virus); experiment: BLI steady state
[58] = molecular target: HA of H7N3 A/NIBRG/60 (A/mallard/NL/12/00) (influenza A virus); experiment: BLI steady state

B1: SD1025 (VHH)
VHH: EVQLVESGGGLVQAGGSLRLSCAASGRTYAMAWFRQAPGKEREFVAHINALGTRTYYSDSVQGRFTISRDNAKNTEYLQMNSLKPEDTAVYYCAAGGQWRAAPVADAAQYDFWGQGTQVTVSS
VNA titer [1]: > 1000 nM
VNA titer [2]: > 1000 nM
VNA titer [3]: > 1000 nM
VNA titer [4]: > 1000 nM
VNA titer [5]: > 1000 nM
VNA titer [6]: > 1000 nM
VNA titer [7]: 52 nM

B2: MD2312 (bispecific antibody)
chain: EVQLVESGGGLVQAGDSLRLSCAASGPTFGMSAMGWFRQAPGKEREFVAAISGLGNPNYSDDVKGRFTISRENGRNTVYLQMNSLKPEDTAVYYCAQRKVYHVQGGDRPQAYDYWGQGTQVTVSSGGGGSGGGGSEVQLVESGGGLVQAGDSLRISCAASGRTLSIYSMGWFRQAPGKEREFVATIGWNSGRTFYPDSLKGRFTISRDNARNTLYLQMNNLRPEDTAVYYCAAAKGPLRLSSQADYWGQGTQVTVSSGGGGSGGGGSEVQLVESGGGLVQPGGSLRLSCAATGFTLENKAIGWFRQTPGSEREGVLCISKSGSWTYYTDSMRGRFTISRDNAENTVYLQMDSLKPEDTAVYYCATTTAGGGLCWDGTTFSRLASSWGQGTQVTVSS
average neutralization titer [8]: 18.1 nM
average neutralization titer [9]: 21.6 nM
average neutralization titer [10]: 5.8 nM
average neutralization titer [11]: 7.7 nM
average neutralization titer [12]: < 1000 nM
average neutralization titer [13]: 43.2 nM

B3: MD2501 (bispecific antibody)
chain: EVQLVESGGGLVQPGGSLRLSCAVSISIFDIYAMDWYRQAPGKQRDLVATSFRDGSTNYADSVKGRFTISRDNAKNTLYLQMNSLKPEDTAVYLCHVSLYRDPLGVAGGMGVYWGKGALVTVSSGGGGSGGGGSEVQLVESGGGLVQPGGSLRLSCAVSISIFDIYAMDWYRQAPGKQRDLVATSFRDGSTNYADSVKGRFTISRDNAKNTLYLQMNSLKPEDTAVYLCHVSLYRDPLGVAGGMGVYWGKGALVTVSSGGGGSGGGGSEVQLVESGGGLVQAGGSLKLSCAASGRTYAMGWFRQAPGKEREFVAHINALGTRTYYSDSVKGRFTISRDNAKNTEYLEMNNLKPEDTAVYYCTAQGQWRAAPVAVAAEYEFWGQGTQVTVSSGGGGSGGGGSEVQLVESGGGLVQPGGSLRLSCAATGFTLENKAIGWFRQTPGSEREGVLCISKSGSWTYYTDSMRGRFTISRDNAENTVYLQMDSLKPEDTAVYYCATTTAGGGLCWDGTTFSRLASSWGQGTQVTVSSGGGGSGGGGSEVQLVESGGGLVQPGGSLKLSCAASGFTFSTSWMYWLRQAPGKGLEWVSVINTDGGTYYADSVKDRFTISRDNAKDTLYLQMSSLKSEDTAVYYCAKDWGGPEPTRGQGTQVTVSS
average neutralization titer [14]: 4.9 nM
average neutralization titer [15]: 5.8 nM
average neutralization titer [16]: 16 nM
average neutralization titer [17]: 21.2 nM
average neutralization titer [18]: 8.8 nM
average neutralization titer [8]: 9.6 nM
average neutralization titer [19]: 15.6 nM
average neutralization titer [20]: 14 nM
average neutralization titer [21]: 2.9 nM
average neutralization titer [22]: 3.9 nM
average neutralization titer [23]: 5 nM
average neutralization titer [24]: 19 nM
average neutralization titer [25]: 12.6 nM
average neutralization titer [26]: 3 nM
average neutralization titer [27]: 18.1 nM
average neutralization titer [28]: 3.9 nM
average neutralization titer [29]: 6.5 nM
average neutralization titer [30]: 8.3 nM
average neutralization titer [31]: 3 nM
average neutralization titer [32]: 4.8 nM
average neutralization titer [10]: 6.5 nM
average neutralization titer [33]: 8.5 nM
average neutralization titer [34]: 16 nM
average neutralization titer [11]: 13.8 nM
average neutralization titer [35]: 5.7 nM
average neutralization titer [36]: 14.9 nM
average neutralization titer [37]: 14.6 nM
average neutralization titer [38]: 4.3 nM
average neutralization titer [39]: 16 nM
average neutralization titer [40]: 16 nM
average neutralization titer [41]: 36.5 nM
average neutralization titer [42]: 14.1 nM
average neutralization titer [43]: 4.9 nM
average neutralization titer [44]: 4 nM
average neutralization titer [12]: 19.9 nM
average neutralization titer [13]: 73.8 nM
average neutralization titer [45]: 11.6 nM
average neutralization titer [46]: 1.3 nM

B4: FM1W3 (Fc fusion)
chain: TIFGIRVNTMG
Average neutralization titers [47]: 8 nM
Average neutralization titers [48]: 6 nM
Average neutralization titers [49]: 10 nM
Average neutralization titers [50]: 16 nM
Average neutralization titers [51]: 16 nM

B5: SD2086 (VHH)
VHH: EVQLVESGGGLVQAGGSLRLSCATSGQTFSSYAMGWFRQAPGKEREFVAAISWNGGSTYYADSVKGRFTISRESPENLVYLQMNSLKPEDTAVYYCAARGAYYTGSYYLGSTYDYWGQGTQVTVSS
VNA titer [52]: 273 nM
VNA titer [53]: 964 nM
VNA titer [54]: 546 nM
VNA titer [55]: 815 nM
VNA titer [56]: 934 nM

B6: SD1048 (VHH)
VHH: EVQLVESGGGVVQPGGSLRLSCVASGRTSSMYSIGWFRQAPGKEREFVAVIGWYSGRTFYTDSMKGRFTISRDNARNTVYLQMNSLKPEDTAVYYCAAANGPLRLSNQADYWGQGTQVTVSS
VNA titer [1]: > 1000 nM
VNA titer [2]: 19.5 nM
VNA titer [55]: > 1000 nM
VNA titer [3]: > 1000 nM
VNA titer [56]: > 1000 nM
VNA titer [5]: > 1000 nM
VNA titer [7]: 20.6 nM
Kd [57]: 3 nM
Kd [58]: 3 nM
